The source of these data is patent US10774121B2, “Methods and compositions for treating neurodegenerative disorders and Alzheimer's Disease and improving normal memory” (The Regents of the University of California, priority 2006, dated 2020).

For the assay, the system named is protein tyrosine kinase activity. In words: Protein tyrosine kinase ELISA on extracts of β-APP-transfected ES double-null cells mixed with PS-1-transfected DAMI cells. The settings on record: 25 μg protein added, 0-20 min after mixing. The class given is cell-based. Here is the method: DAMI:ES cells: Equal numbers (0.5×10^6/ml) of β-APP 695 (Selkoe and Podlisny, 2002)-transfected ES double-null cells and PS-1 transfected DAMI cells were co-cultured at 37° C. for various times between 0-20 mins.
At several times between 0 and 20 min after mixing, an aliquot of each cell mixture was rapidly centrifuged, the culture medium was removed, and the cell pellet was suspended in 200 μl of extraction buffer (50 mM Tris, pH 8.0/150 mM NaCl/0.5% Nonidet-P40) containing protease inhibitors (1 mM 4-(2-aminoethyl) benzene sulfonyl fluoride hydrochloride (AEBSF)/1 μg/ml antipain/0.1 μg/ml pepstatin A/0.1 μg/ml leupeptin) and the phosphatase inhibitor sodium orthovanadate (0.1 mM). The mixture was sonicated with three bursts of 20 sec duration and then centrifuged. These extract supernatants were then used for Western blot and ELISA analyses as described below.
ELISAs Protein tyrosine kinase activity was measured by an Enzyme Linked Immunosorbent Assay (ELISA) using a tyrosine kinase assay kit (Upstate Biotechnology). A biotinylated substrate peptide containing tandem repeats of Poly (Glu4-Tyr) was incubated with supernatants of extracts of transfected cells mixed for different times ([…]) in the presence of non-radioactive ATP and a Mn^2+/Mg^2+ co-factor cocktail according to the manufacturer's protocols. […]
A general note: ELISA stands for enzyme-linked immunosorbent assay.

B1: N-terminal domain of PS-2 fused to FLAG: fusion protein with FLAG attached at the N-terminus of the PS-2 N-terminal domain (protein)
chain: MLTFMASDSEEEVCDERTSLMSAESPTPRSCQEGRQGPEDGENTAQWRSQENEEDGEEDPDRYVCSGVPGRPPGLEEELTLKYGAKH
modifications: left off: small tags and cut ends
notes: fusion protein with FLAG attached at the N-terminus of the PS-2 N-terminal domain
On to B1, for which the “transient increase in protein tyrosine kinase activity after cell mixing” value was “very similar transient increases”. For the same molecule, the “transient increase in protein tyrosine kinase activity after cell mixing” value (listed as FLAG-PS-2 N-terminal domain fusion peptide) is on record as “did not inhibit”.
